In experiment [1] the target is Ad26 viral particles. Kind of experiment: SPR; pre-vaccination human serum (1:5) flowed over Ad26 first. On the technique in general: SPR reads the build-up and loss of mass on a sensor chip optically.
Experiment [2] concerns the target Ad26 viral particles. Put plainly: SPR; post-Ad26 vaccination human serum (1:5) flowed over Ad26 first.
Experiment [3] concerns the target Ad26 viral particles. Described as above. This is another data set of the same source.
In experiment [4] the target is Ad26 viral particles. Put plainly: SPR; pre-vaccination human serum (1:5) flowed over Ad26 first. This is another data set of the same source.

B1: recombinant human platelet factor 4 (PF4) (natural protein)
chain: EAEEDGDLQCLCVKTTSQVRPRHITSLEVIKAGPHCPTAQLIATLKNGRKICLDLQAPLYKKIIKKLLES
The Kd is the constant that tells how readily two partners part at equilibrium. The low end stands for tighter binding, the high end for weaker binding. Consider B1, for which the Kd is 122 nM with Ad26 viral particles [1], 478 nM with Ad26 viral particles [2], 612 nM with Ad26 viral particles [3] and 233 nM with Ad26 viral particles [4].

For the origin of these results see PMC10593859 (2023).
